Test results taken from IntAct's records for PubMed 20863830.

B1: Phospholipid-transporting ATPase ABCA3 (Homo sapiens), Q99758 (parent)
chain: MAVLRQLALLLWKNYTLQKRKVLVTVLELFLPLLFSGILIWLRLKIQSENVPNATIYPGQSIQELPLFFTFPPPGDTWELAYIPSHSDAAKTVTETVRRALVINMRVRGFPSEKDFEDYIRYDNCSSSVLAAVVFEHPFNHSKEPLPLAVKYHLRFSYTRRNYMWTQTGSFFLKETEGWHTTSLFPLFPNPGPREPTSPDGGEPGYIREGFLAVQHAVDRAIMEYHADAATRQLFQRLTVTIKRFPYPPFIADPFLVAIQYQLPLLLLLSFTYTALTIARAVVQEKERRLKEYMRMMGLSSWLHWSAWFLLFFLFLLIAASFMTLLFCVKVKPNVAVLSRSDPSLVLAFLLCFAISTISFSFMVSTFFSKANMAAAFGGFLYFFTYIPYFFVAPRYNWMTLSQKLCSCLLSNVAMAMGAQLIGKFEAKGMGIQWRDLLSPVNVDDDFCFGQVLGMLLLDSVLYGLVTWYMEAVFPGQFGVPQPWYFFIMPSYWCGKPRAVAGKEEEDSDPEKALRNEYFEAEPEDLVAGIKIKHLSKVFRVGNKDRAAVRDLNLNLYEGQITVLLGHNGAGKTTTLSMLTGLFPPTSGRAYISGYEISQDMVQIRKSLGLCPQHDILFDNLTVAEHLYFYAQLKGLSRQKCPEEVKQMLHIIGLEDKWNSRSRFLSGGMRRKLSIGIALIAGSKVLILDEPTSGMDAISRRAIWDLLQRQKSDRTIVLTTHFMDEADLLGDRIAIMAKGELQCCGSSLFLKQKYGAGYHMTLVKEPHCNPEDISQLVHHHVPNATLESSAGAELSFILPRESTHRFEGLFAKLEKKQKELGIASFGASITTMEEVFLRVGKLVDSSMDIQAIQLPALQYQHERRASDWAVDSNLCGAMDPSDGIGALIEEERTAVKLNTGLALHCQQFWAMFLKKAAYSWREWKMVAAQVLVPLTCVTLALLAINYSSELFDDPMLRLTLGEYGRTVVPFSVPGTSQLGQQLSEHLKDALQAEGQEPREVLGDLEEFLIFRASVEGGGFNERCLVAASFRDVGERTVVNALFNNQAYHSPATALAVVDNLLFKLLCGPHASIVVSNFPQPRSALQAAKDQFNEGRKGFDIALNLLFAMAFLASTFSILAVSERAVQAKHVQFVSGVHVASFWLSALLWDLISFLIPSLLLLVVFKAFDVRAFTRDGHMADTLLLLLLYGWAIIPLMYLMNFFFLGAATAYTRLTIFNILSGIATFLMVTIMRIPAVKLEELSKTLDHVFLVLPNHCLGMAVSSFYENYETRRYCTSSEVAAHYCKKYNIQYQENFYAWSAPGVGRFVASMAASGCAYLILLFLIETNLLQRLRGILCALRRRRTLTELYTRMPVLPEDQDVADERTRILAPSPDSLLHTPLIIKELSKVYEQRVPLLAVDRLSLAVQKGECFGLLGFNGAGKTTTFKMLTGEESLTSGDAFVGGHRISSDVGKVRQRIGYCPQFDALLDHMTGREMLVMYARLRGIPERHIGACVENTLRGLLLEPHANKLVRTYSGGNKRKLSTGIALIGEPAVIFLDEPSTGMDPVARRLLWDTVARARESGKAIIITSHSMEECEALCTRLAIMVQGQFKCLGSPQHLKSKFGSGYSLRAKVQSEGQQEALEEFKAFVDLTFPGSVLEDEHQGMVHYHLPGRDLSWAKVFGILEKAKEKYGVDDYSVSQISLEQVFLSFAHLQPPTAEEGR
partner: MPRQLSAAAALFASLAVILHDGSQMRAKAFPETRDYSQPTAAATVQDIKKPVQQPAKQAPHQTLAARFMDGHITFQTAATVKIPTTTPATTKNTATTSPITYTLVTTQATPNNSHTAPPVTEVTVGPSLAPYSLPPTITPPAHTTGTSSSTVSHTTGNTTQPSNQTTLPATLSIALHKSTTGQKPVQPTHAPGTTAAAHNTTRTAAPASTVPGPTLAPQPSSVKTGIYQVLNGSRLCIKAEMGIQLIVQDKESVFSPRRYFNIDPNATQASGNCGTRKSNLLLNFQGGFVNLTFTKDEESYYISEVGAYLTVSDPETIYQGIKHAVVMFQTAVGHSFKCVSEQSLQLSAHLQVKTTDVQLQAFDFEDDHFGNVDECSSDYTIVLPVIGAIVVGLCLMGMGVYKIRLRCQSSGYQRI
B2: Phospholipid-transporting ATPase ABCA3 (Homo sapiens), Q99758 (parent)
chain: B1 chain
partner: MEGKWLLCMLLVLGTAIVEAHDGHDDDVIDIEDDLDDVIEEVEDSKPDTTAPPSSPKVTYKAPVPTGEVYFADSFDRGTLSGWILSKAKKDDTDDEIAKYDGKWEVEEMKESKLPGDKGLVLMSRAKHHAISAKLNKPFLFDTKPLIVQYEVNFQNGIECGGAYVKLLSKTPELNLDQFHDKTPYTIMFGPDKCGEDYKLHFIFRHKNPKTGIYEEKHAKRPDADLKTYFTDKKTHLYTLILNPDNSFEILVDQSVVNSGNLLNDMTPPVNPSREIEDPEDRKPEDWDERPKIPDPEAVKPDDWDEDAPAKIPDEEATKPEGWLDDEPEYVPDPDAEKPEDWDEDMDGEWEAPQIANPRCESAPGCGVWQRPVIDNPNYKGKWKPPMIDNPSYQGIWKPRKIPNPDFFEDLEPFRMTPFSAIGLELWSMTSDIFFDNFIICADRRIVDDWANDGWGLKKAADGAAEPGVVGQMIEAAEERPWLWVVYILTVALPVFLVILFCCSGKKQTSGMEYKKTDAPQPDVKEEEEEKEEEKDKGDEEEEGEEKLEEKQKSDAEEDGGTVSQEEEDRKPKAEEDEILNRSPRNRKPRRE

Variants of: B1
Conditions: with lamp3_human LAMP3, Q9UQV4

Variant | effect of a mutation on the interaction
Q215K | disrupting interaction

Variants of: B2
Conditions: with calx_human CANX

Variant | effect of a mutation on the interaction
Q215K | increasing interaction
